{
  "source": "patent EP3932948A1",
  "about": "(Sunshine Guojian Pharmaceutical (Shanghai) Co., Ltd., dated 2022)",
  "binders": {"B1": {"name": "5E7-Hu-IgG4 (antibody, V domains shown)", "VH": "EVQLVESGGGLVKPGGSLRLSCAASGFTFSDDYMAWFRQAPGKRLEWVASISHGGDYIYYADNLKGRFTISRDNAKNSLYLQMNSLRAEDTAVYFCSRDRRSIDYWGQGTLVTVSS", "VL": "DIQMTQSPSSLSASVGDRVTITCRASQDISNYLSWYQQKPGKTIKLLIYYTSRLHSGVPSRFSGSGSGTDYTFTISSLQPEDIATYFCQQGKTLPYTFGQGTKVEIKR", "modifications": "Biotinylated with NHS-biotin only for the flow cytometry of Example 7 (positions not defined).", "notes": "also called humanized antibody No. 5E7; 5E7-Hu-IgG4-HC + 5E7-Hu-LC"}},
  "key": {"[1]": {"target": "T1, LAG-3 on the cell surface of SEA-activated human PBMC (activated T cells) (human, UniProt P18627 23-525)", "T1 sequence (looked up)": "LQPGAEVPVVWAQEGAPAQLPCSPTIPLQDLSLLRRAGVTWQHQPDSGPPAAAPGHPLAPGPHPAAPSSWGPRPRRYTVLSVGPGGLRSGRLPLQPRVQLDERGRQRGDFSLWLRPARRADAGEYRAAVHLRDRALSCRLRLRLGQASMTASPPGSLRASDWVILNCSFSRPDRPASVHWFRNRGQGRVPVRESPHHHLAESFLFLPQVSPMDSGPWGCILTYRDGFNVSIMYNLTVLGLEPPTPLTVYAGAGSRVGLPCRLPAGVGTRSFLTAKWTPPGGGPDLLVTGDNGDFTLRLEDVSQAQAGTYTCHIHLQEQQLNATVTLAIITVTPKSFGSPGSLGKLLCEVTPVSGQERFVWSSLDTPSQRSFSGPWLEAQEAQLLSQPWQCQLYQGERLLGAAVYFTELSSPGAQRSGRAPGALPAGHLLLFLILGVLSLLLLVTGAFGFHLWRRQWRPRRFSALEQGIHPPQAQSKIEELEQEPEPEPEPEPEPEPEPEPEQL", "test": "cell-based or functional assay"}, "[2]": {"target": "T1, LAG-3 on the cell surface of …", "test": "flow cytometry, biotinylated antibody on SEA-activated human PBMC, PE-Streptavidin detection"}, "[3]": {"target": "T2, recombinant LAG-3 (purchased from SinoBiological, Cat. No.: 16498-H08H) (human, UniProt P18627 23-450)", "T2 construct": "also called human LAG-3", "T2 sequence (looked up)": "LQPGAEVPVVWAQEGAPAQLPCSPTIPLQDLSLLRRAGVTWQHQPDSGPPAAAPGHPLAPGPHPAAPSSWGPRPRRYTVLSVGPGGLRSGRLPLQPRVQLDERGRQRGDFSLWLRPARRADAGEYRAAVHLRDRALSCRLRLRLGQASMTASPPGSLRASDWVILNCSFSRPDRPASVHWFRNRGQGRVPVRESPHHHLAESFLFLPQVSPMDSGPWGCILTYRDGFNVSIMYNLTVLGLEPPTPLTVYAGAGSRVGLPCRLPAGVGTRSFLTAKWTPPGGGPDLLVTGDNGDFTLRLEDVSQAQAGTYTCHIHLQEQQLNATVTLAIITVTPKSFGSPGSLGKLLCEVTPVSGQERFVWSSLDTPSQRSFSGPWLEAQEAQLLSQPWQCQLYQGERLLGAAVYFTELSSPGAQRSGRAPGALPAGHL", "test": "SPR (Biacore 8K), antibody captured on Protein A chip, recombinant LAG-3 as analyte"}, "[4]": {"target": "T3, full-length human LAG-3 on CHO-S cells (CHO-S-LAG-3) (human, UniProt P18627 23-525)", "T3 construct": "whole, on cells", "T3 sequence (looked up)": "T1 sequence (looked up)", "test": "flow cytometry, blocking of Biotin-FGL1-hFc (2 ug/ml) binding to CHO-S-LAG-3 cells"}, "[5]": {"target": "T4, LAG-3-ECD-His (LAG-3 extracellular segment with His tag, purchased from Sino Biological Inc.) (UniProt P18627 23-450)", "T4 construct": "extracellular domain; not shown: His tag", "T4 sequence (looked up)": "T2 sequence (looked up)", "test": "ELISA, plate coated with LAG-3-ECD-His (10 ng/well), anti-human IgG (Fc) detection"}},
  "data": [
    {"binder": "B1", "values": [
      {"measurement": "EC50 of enhancing the secretion of IL-2 by SEA-stimulated PBMC (Fig. 3A)", "setting": "[1]", "result": 0.0781, "unit": "µg/mL"},
      {"measurement": "EC50 of enhancing the secretion of IL-2 by SEA-stimulated PBMC (Fig. 3B)", "setting": "[1]", "result": 0.00307, "unit": "µg/mL"},
      {"measurement": "EC50", "setting": "[2]", "result": 0.0531, "unit": "µg/mL"},
      {"measurement": "Kd", "setting": "[3]", "result": 4.17, "unit": "pM"},
      {"measurement": "koff", "setting": "[3]", "result": "1.84e-05", "unit": "s⁻¹"},
      {"measurement": "kon", "setting": "[3]", "result": "4.41e+06", "unit": "M⁻¹ s⁻¹"},
      {"measurement": "IC50", "setting": "[4]", "result": 0.0977, "unit": "µg/mL"},
      {"measurement": "EC50", "setting": "[5]", "result": 0.00908, "unit": "µg/mL"}
    ]}
  ]
}
